The nature of the data set: Viscosity measurement and state of medium composition. Particulars: for viscosity: 37° C., 100 rpm. The format is physicochemical. On the procedure: Deacylated gellan gum (KELCOGEL CG-LA, manufactured by SANSHO Co., Ltd.) was suspended in pure water to 0.4% (w/v), and dissolved by stirring with heating at 90° C. This aqueous solution was allowed to cool to room temperature with stirring, and sterilized at 121° C. for 20 min in an autoclave. A 2-fold concentration of DMEM/F-12 medium (manufactured by Aldrich, 50 mL) and sterilization water (47.5 mL) were placed in a 300 mL tall beaker with stirring by a homomixer (3000 rpm) at room temperature, aqueous deacylated gellan gum solution (2.5 mL) was added, and the mixture was continuously stirred for 1 min to prepare a deacylated gellan gum medium composition with a final concentration of 0.01%. Medium compositions added with aqueous deacylated gellan gum solution with final concentrations of 0.02, 0.03 and 0.05% (w/v) were similarly prepared. The viscosity of the medium compositions was measured using an E type viscometer (manufactured by Toki Sangyo Co., Ltd., Viscometer TVE-22 L, standard roter 1° 34′×R24) under 37° C. condition at 100 rpm for 5 min.
The medium compositions prepared above were subjected to a suspension test of HeLa cell spheres and a viscosity measurement, in the same manner as with the deacylated gellan gum-containing medium. The viscosity of 1.0% (w/v) methylcellulose was measured at 50 rpm due to the measurement range of the apparatus.
In the same manner as in Reference Experimental Example 2, spheres of HeLa cells were formed, and several tens of the spheres were added to each medium (1 mL) prepared above, the mixture was stood still at 37° C. for 1 hr, and the suspended state of the sphere cells was visually observed. […] Furthermore, it was confirmed that addition of an equal amount of the medium to the cell suspension and centrifugation (300 to 400G, for 5 min) thereof result in sedimentation and recovery of the spheres of HeLa cells.
By a method similar to that for the polysaccharide mixture of Reference Experimental Example 9, DMEM/F-12 media containing deacylated gellan gum at a final concentration of 0.005, 0.01% (w/v) and other polysaccharide were prepared. The final concentration of polysaccharide was set to 0.1% (w/v) for xanthan gum, sodium alginate, locust bean gum, 0.2% (w/v) for methylcellulose, and 0.05% (w/v) for K-carageenan and diutan gum. The state of each medium composition and the viscosity measured by a method similar to that in Analysis Example 1 are shown in Tables 11-16.

Regarding collagen, the state entry is, setting by setting: (0.01% (w/v) in DMEM/F-12) “liquid”; (0.05% (w/v) in DMEM/F-12) “liquid/solid”; (0.1% (w/v) in DMEM/F-12) “solid (gel)”; (0.2% (w/v) in DMEM/F-12) “solid (gel)”. For the same substance, the viscosity entry is, setting by setting: (0.05% (w/v) in DMEM/F-12) “unmeasurable”; (0.1% (w/v) in DMEM/F-12) “unmeasurable”; (0.2% (w/v) in DMEM/F-12) “unmeasurable”.
